# Assay results: patent US20200332371A1 (UNIVERSITY OF CHICAGO, published 2020)
# B1: N-ZA (other)
# chain: MNTINIAKNDFSDIELAAIPFNTLADHYGERLAREQLALEHESYEMGEARFRKMFERQLKAGEVADNAAAKPLITTLLPKMIARINDWFEEVKAKRGKRPTAFQFLQEIKPEAVAYITIKTTLACLTSADNTTVQAVASAIGRAIEDEARFGRIRDLEAKHFKKNVEEQLNKRVGHVYKGGSGSGSSALKKELQANKKELAQLKWELQALKKELAQ
# B2: N-term RNAP (WT) (enzyme)
# chain: MNTINIAKNDFSDIELAAIPFNTLADHYGERLAREQLALEHESYEMGEARFRKMFERQLKAGEVADNAAAKPLITTLLPKMIARINDWFEEVKAKRGKRPTAFQFLQEIKPEAVAYITIKTTLACLTSADNTTVQAVASAIGRAIEDEARFGRIRDLEAKHFKKNVEEQLNKRVGHVYK
# notes: N-terminal half of T7 RNAP split at position 179, without a fusion partner; expressed in E. coli; also called N-terminal split RNAP; N-terminal T7 RNAP
# What was measured:
# [1] = molecular target: SspB-C-term (bacteriophage T7) (UniProt P0AFZ3); test: cell-based or functional assay
# [2] = molecular target: FKBP-C-term (bacteriophage T7) (UniProt P62942); test: cell-based or functional assay
# C-ZB [3] = molecular target: T1, C-ZB (bacteriophage T7, UniProt P00573 180-883); test: cell-based or functional assay
# C-term RNAP (WT) = molecular target: T2, C-term RNAP (WT) (bacteriophage T7, UniProt P00573 180-883); test: E. coli luciferase transcription reporter (split T7 RNAP complementation)
# T2 construct: C-terminal half of T7 RNAP split at position 179, without a fusion partner; expressed in E. coli; A start codon for the unfused half is not described; also called C-terminal split RNAP; C-terminal T7 RNAP
# Description: (§1) In vivo transcription assays of split RNAPs. N- and C-terminal halves of the RNAP were cloned into expression vectors, with the N-terminal RNAP under a constitutive promoter and the C-terminal RNAP under the arabinose-inducible promoter (Supplementary FIG. 1). S1030 cells (Carlson, et al., 2014) were transformed by electroporation with three plasmids: (i) an N-terminal RNAP expression plasmid, (ii) a C-terminal expression plasmid, and (iii) a reporter plasmid that encodes luciferase under control of the T7 promoter. The transformed cells were then plated onto agar plates (15 g/L in LB) with 50 μg/mL carbenicillin, 50 μg/mL spectinomycin, 33 μg/mL chloramphenicol, and 10 mM glucose. […] After growth with shaking at 37° C. for 2 h, 150 μL of each culture was transferred to a 96-well black wall, clear bottom plate (Costar), and luminescence and OD600 was measured on a Synergy H4 Hybrid Reader (BioTek). The data were analyzed by dividing the luminscence values by the background-corrected OD600 value, then subtracting out the background from the reporter vector alone. All values were then normalized to the wild-type split RNAP fused to ZA and ZB (data shown in FIG. 1d), which was assigned an arbitrary value of 100, allowing the values from each luminescence plot to be compared to one another. […]
# C-ZB [4] = molecular target: T1, C-ZB; test: as above
# Description: as §1
# T1 sequence (P00573 180-883, tags or fused parts left off): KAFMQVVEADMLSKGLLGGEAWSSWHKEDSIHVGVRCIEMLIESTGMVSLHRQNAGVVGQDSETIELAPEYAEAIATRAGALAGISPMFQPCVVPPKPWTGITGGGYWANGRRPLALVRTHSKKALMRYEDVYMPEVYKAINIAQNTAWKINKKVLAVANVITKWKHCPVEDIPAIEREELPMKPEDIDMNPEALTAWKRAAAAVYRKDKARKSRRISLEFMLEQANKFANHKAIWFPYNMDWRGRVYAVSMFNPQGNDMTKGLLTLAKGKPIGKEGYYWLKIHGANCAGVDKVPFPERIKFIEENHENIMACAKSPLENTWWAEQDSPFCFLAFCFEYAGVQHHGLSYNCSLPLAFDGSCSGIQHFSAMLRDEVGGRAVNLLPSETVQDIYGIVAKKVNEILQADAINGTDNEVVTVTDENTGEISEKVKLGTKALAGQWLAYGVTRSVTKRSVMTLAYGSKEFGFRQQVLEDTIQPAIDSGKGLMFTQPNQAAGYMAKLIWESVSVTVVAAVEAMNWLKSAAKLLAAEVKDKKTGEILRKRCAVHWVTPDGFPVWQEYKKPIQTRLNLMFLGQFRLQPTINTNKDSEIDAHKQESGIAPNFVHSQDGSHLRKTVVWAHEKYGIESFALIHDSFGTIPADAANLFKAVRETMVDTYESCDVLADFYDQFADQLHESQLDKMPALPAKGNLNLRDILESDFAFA
# SspB-C-term (bacteriophage T7), sequence (P0AFZ3 6-116, tags or fused parts left off): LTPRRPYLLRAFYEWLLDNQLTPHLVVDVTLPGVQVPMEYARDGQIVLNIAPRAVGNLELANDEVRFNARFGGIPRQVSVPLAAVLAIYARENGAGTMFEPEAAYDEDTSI
# T2 sequence (P00573 180-883 limits assumed): as the sequence (P00573 180-883, tags or fused parts left off) above
# FKBP-C-term (bacteriophage T7), sequence (P62942 1-108, tags or fused parts left off): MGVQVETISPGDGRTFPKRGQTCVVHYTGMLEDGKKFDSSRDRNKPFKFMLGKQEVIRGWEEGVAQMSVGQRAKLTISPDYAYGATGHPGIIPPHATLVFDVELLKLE
molecule,measurement,setting,value
N-term-iLID,"transcriptional output (luciferase reporter, E. coli), blue LED light against dark",[1],26 fold
N-term-FRB (from UniProt P42345 2021-2113),"RNA synthesis in the in vivo luciferase transcription reporter assay (E. coli), with rapamycin",[2],340 fold
B1,"transcription (luciferase reporter under the T7 promoter, E. coli)",C-ZB [3],~5 fold
B2,binding result,C-term RNAP (WT),binds
same,binding result,C-ZB [4],binds
